± gives the uncertainty stated by the source.
Experiment: protein stability index of a GFP-peptide fusion (yeast GPS) (PSI 1-4); higher = more stable; sorted into four equal gates, so the index is relative within each strain
Method in brief: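 Tiled yeast protein peptides of 17 residues were each joined downstream of GFP, on plasmids that also express Cherry. The pooled library was maintained in yeast, and mid-log cultures in leucine-free medium were sorted into four equal gates on the GFP/Cherry ratio. Plasmids from every gate were amplified by PCR and sequenced on Illumina, with barcodes linking reads to strains. The protein stability index of a peptide is its gate-number-weighted read frequency summed over the gates.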

Row | Sequence | protein stability index (doa10∆) | protein stability index (pdr5∆) | protein stability index (san1∆) | protein stability index (ubr1∆)
1 | VVIEKRRKKILNEIELD [GRR1] | 2.03 ± 0.14 | 2.77 ± 0.1 | 2.05 ± 0.17 | 2.96 ± 0.054
2 | VSLQNFSSSVSLSYMAF [RRP40] | 2.22 ± 0.047 | 1.64 ± 0.041 | 1.76 ± 0.074 | 1.83 ± 0.04
3 | ILVDSLTGNQLPTPTPT [SWI1] | 2.73 ± 0.066 | 2.76 ± 0.073 | 2.93 ± 0.048 | 2.73 ± 0.045
4 | QQRFQALQQQQQQQQNQ [SWI1] | 2.05 ± 0.05 | 2.07 ± 0.046 | 2.25 ± 0.052 | 2.04 ± 0.059
5 | ADDHASVQINVAKVDEE [RPS21A] | 3.26 ± 0.062 | 3.08 ± 0.072 | 3.13 ± 0.045 | 3.26 ± 0.04
6 | IFIATQLEKKIRFVCLS [BRR2] | 2.17 ± 0.2 | 1.86 ± 0.11 | – | 1.49 ± 0.074
7 | DAVLKIFSFHQDSIFQR [SRB8] | 3.12 ± 0.11 | 2.79 ± 0.12 | 3.04 ± 0.077 | 2.77 ± 0.057
8 | NEEINKKSLEEDDEFED [SEM1] | – | 3.33 ± 0.11 | 2.9 ± 0.25 | –
9 | QHIYPSSTPGVANYSAM [GAL11] | 2.85 ± 0.11 | 2.7 ± 0.12 | 3.01 ± 0.11 | 2.81 ± 0.14
10 | EIKNDFIMVKGCIPGNR [RPL3] | 1.1 ± 0.14 | 1.66 ± 0.08 | 1.48 ± 0.16 | 1.45 ± 0.11
11 | AVSVANGFMHAGTTDNS [RPN2] | 1.25 ± 0.062 | 1.4 ± 0.051 | 1.17 ± 0.24 | 1.28 ± 0.067
12 | PDMYERKVENIRTILVN [MED7] | 1.32 ± 0.045 | 1.65 ± 0.045 | 1.46 ± 0.096 | 1.36 ± 0.036
13 | QNDELTMGMRALLKLSV [DIS3] | 2.01 ± 0.094 | 2.49 ± 0.078 | 1.55 ± 0.067 | 2.7 ± 0.066
14 | NQSSFNFGNNGAGGLNP [YOR098C/NUP1] | 3.15 ± 0.069 | 3.1 ± 0.076 | 3.2 ± 0.045 | 3.25 ± 0.064
15 | NQLVEPNRIKLSKEVPF [SRB5] | 2.42 ± 0.038 | 2.44 ± 0.037 | 2.46 ± 0.042 | 2.23 ± 0.025
16 | KDTIVKEAEDKTLVALE [RPC37] | 3.4 ± 0.11 | 3.11 ± 0.093 | 3.33 ± 0.19 | 3.18 ± 0.097
17 | SFQKNSLHNTEKIMENK [AAR2] | 3.08 ± 0.057 | 3.22 ± 0.066 | 2.93 ± 0.042 | 2.96 ± 0.049
18 | PLQVARCTKIIKGNGES [RPT1] | 2.96 ± 0.16 | 2.96 ± 0.081 | 2.72 ± 0.09 | 2.01 ± 0.14
19 | DRTLPHFSKDDYSPESK [RPO21] | 3.07 ± 0.1 | 3.22 ± 0.074 | 2.85 ± 0.099 | 3.42 ± 0.093
20 | FLPKLNSVRNSLLLAHF [NUT1] | 2.15 ± 0.04 | 1.5 ± 0.046 | 1.65 ± 0.07 | 1.81 ± 0.029
21 | DVNDVLTKYIRSKNLIF [GRR1] | 2.68 ± 0.066 | 2.78 ± 0.08 | 2.19 ± 0.083 | 2.68 ± 0.043
22 | EKIKMKLKQGQKLFVQV [GAL11] | 2.85 ± 0.13 | 3.2 ± 0.09 | 3.28 ± 0.074 | 3.23 ± 0.14
23 | NQTIKEAKDAIIELENI [YIL149C/MLP2] | 3.02 ± 0.061 | 3.2 ± 0.07 | 3.06 ± 0.052 | 2.89 ± 0.065
24 | VLYYRDARSSRNFSLAI [PRE4] | 2.85 ± 0.14 | 2.63 ± 0.12 | 1.99 ± 0.15 | 2.39 ± 0.085
25 | NGNKDSSFNFNKNLPFV [SWI1] | 3.21 ± 0.058 | 3.38 ± 0.068 | 3.28 ± 0.051 | 3.31 ± 0.043
26 | LSLTAVPSFLRPDITMY [GRR1] | 2.17 ± 0.043 | 2.34 ± 0.045 | 2.18 ± 0.051 | 2.33 ± 0.043

Row | Sequence | protein stability index (doa10∆) | protein stability index (pdr5∆) | protein stability index (san1∆) | protein stability index (ubr1∆)
27 | TVWSANFEYDLSEYDAI [YOR098C/NUP1] | 2.86 ± 0.27 | 3.31 ± 0.19 | 2.98 ± 0.27 | 3.06 ± 0.1
28 | KNQLRDWIRFVSIRQNQ [RPL22B] | 1.51 ± 0.1 | 1.64 ± 0.061 | – | 1.29 ± 0.091
29 | GDDEATEIISTLSNGLI [BRR2] | 3.32 ± 0.099 | 3.1 ± 0.13 | 3.42 ± 0.096 | 3.11 ± 0.21
30 | VCKKADVDLHKRAGELT [RPS18A] | 3.23 ± 0.15 | 3.31 ± 0.12 | 3.39 ± 0.2 | 3.46 ± 0.11
31 | LKALSHHYNPKTKKLNL [BRR2] | 2.46 ± 0.088 | 2.4 ± 0.086 | 2.33 ± 0.11 | 2.69 ± 0.053
32 | TGKFVLQGQMEKIMILL [CSN12] | 1.61 ± 0.1 | 2.2 ± 0.12 | 1.31 ± 0.2 | 1.51 ± 0.12
33 | PGTNGKVKKPLKYLSVE [PRE7] | – | 3.5 ± 0.14 | 3.15 ± 0.09 | 3.24 ± 0.12
34 | PPQLANQQQPPQDILSK [SNF11] | 2.26 ± 0.055 | 2.87 ± 0.069 | 2.41 ± 0.065 | 2.69 ± 0.052
35 | ESQLQMDRTSLRKQYSA [SMC3] | 2.47 ± 0.08 | 2.53 ± 0.096 | 2.75 ± 0.067 | 2.86 ± 0.094
36 | REIESLIAEETNNKKLL [SMC3] | 2.78 ± 0.18 | 2.86 ± 0.082 | 3.01 ± 0.11 | 2.92 ± 0.15
37 | ELNVEKLNTFNLQTFTH [SRP72] | 2.48 ± 0.2 | 2.33 ± 0.15 | 1.9 ± 0.13 | 2.42 ± 0.15
38 | QPAQPRESRIVSTEGNV [RPL21A] | 2.49 ± 0.07 | 2.83 ± 0.074 | 3.04 ± 0.069 | 2.87 ± 0.086
39 | GHIPWHILAVKKMMNTL [SSN2] | 2.45 ± 0.065 | 2.85 ± 0.098 | 2.74 ± 0.1 | 1.1 ± 0.16
40 | PPSVTLQDWQREDEFGS [YDL088C/ASM4] | 3.1 ± 0.11 | 3.31 ± 0.074 | 2.99 ± 0.065 | 3.24 ± 0.054
41 | NLMGNRNNHNSNTSTSK [SNF12] | 3 ± 0.073 | 3.17 ± 0.096 | 2.92 ± 0.12 | 3.07 ± 0.054
42 | GAGIERELARIKKYASV [RPL3] | 3.49 ± 0.21 | 3.46 ± 0.17 | – | –
43 | GYKMIPGAKPLQVGDVV [FAS1] | 2.43 ± 0.1 | 2.44 ± 0.1 | 2.37 ± 0.1 | 1.79 ± 0.14
44 | GCLNFVDENDEVLLAGF [RPS23A] | 1.3 ± 0.083 | 1.53 ± 0.074 | 1.5 ± 0.095 | 1.27 ± 0.068
45 | KAEKAEIRKRRASSLKA [RPS6A] | 2.9 ± 0.25 | 3.48 ± 0.11 | – | 3.06 ± 0.13
46 | SELIRTTLDAEKVFTQG [FAS1] | 3.14 ± 0.067 | 3.16 ± 0.066 | 3.22 ± 0.079 | 3.08 ± 0.07
47 | ALMRCSFEETVEILFEA [RPO21] | 3.12 ± 0.082 | 2.6 ± 0.079 | 3.06 ± 0.062 | 2.85 ± 0.069
48 | FAVIYLCDIDEVSDFDE [DIB1] | 1.46 ± 0.13 | 2.16 ± 0.1 | 1.51 ± 0.17 | 1.64 ± 0.14
49 | QTRKEYNTSILEFRWLT [SIN4] | 1.74 ± 0.073 | 1.74 ± 0.059 | 1.83 ± 0.093 | 2.42 ± 0.098
50 | YYNEEGIHILLYSGLII [RPC82] | 2.01 ± 0.1 | 2.04 ± 0.094 | 2.14 ± 0.18 | 2.28 ± 0.037
51 | KLYDAKRYTSEGTRNRF [YMR129W/POM152] | 3.02 ± 0.098 | 3.15 ± 0.087 | 3.23 ± 0.058 | 3.02 ± 0.055
52 | VYTQSNGKTRTLENTLK [RPS2] | 3.45 ± 0.17 | 3.16 ± 0.1 | 3.24 ± 0.075 | 3.38 ± 0.07

From the supplement of paper PMC9732359
